The data set concerns the target T1, Cdc13-DBD (Saccharomyces cerevisiae, UniProt P32797 497-694).
T1 sequence: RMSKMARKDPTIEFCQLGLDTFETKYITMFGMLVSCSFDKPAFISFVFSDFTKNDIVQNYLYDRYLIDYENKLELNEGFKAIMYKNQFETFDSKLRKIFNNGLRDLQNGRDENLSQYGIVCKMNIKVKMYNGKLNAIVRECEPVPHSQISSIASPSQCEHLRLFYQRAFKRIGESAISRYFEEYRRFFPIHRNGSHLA
The data set is described as follows: NMR.

With GTGTGGGTGTG (ssDNA) [Tel11], the binding result is on record as “binds”.

The values are drawn from article PMC2275150.
